Test results from the supplement of paper PMC10567573.

B1: SNAP91 (parent)
chain: FAQPMMRPPFGAAAVPGTQLSPSP

Variants of: B1
Assay: protein stability index of a GFP-peptide fusion (GPS, HEK-293T) (PSI 1-6); higher = more stable
Settings: c terminus: a fixed tail appended
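Further: lentivirally expressed fusions sorted by FACS into six bins by GFP to DsRed ratio, PSI derived from sequencing read proportions per bin multiplied by bin number.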

Variant	protein stability index
FAQPDMRPPFGAAAVPGTQLSPSP	3.52
FAQPRMRPPFGAAAVPGTQLSPSP	4.15
FAQPKMRPPFGAAAVPGTQLSPSP	2.61
FAQPPMRPPFGAAAVPGTQLSPSP	4.01
FAQPAMRPPFGAAAVPGTQLSPSP	3.49
FAQPQMRPPFGAAAVPGTQLSPSP	3.48
FAQPFMRPPFGAAAVPGTQLSPSP	2.54
FAQPIMRPPFGAAAVPGTQLSPSP	2.59
FAQPWMRPPFGAAAVPGTQLSPSP	1.96
FAQPEMRPPFGAAAVPGTQLSPSP	3.61
FAQPVMRPPFGAAAVPGTQLSPSP	3.01
FAQPGMRPPFGAAAVPGTQLSPSP	2.77
FAQPSMRPPFGAAAVPGTQLSPSP	3.31
FAQPNMRPPFGAAAVPGTQLSPSP	3.22
FAQPHMRPPFGAAAVPGTQLSPSP	2.86
FAQPTMRPPFGAAAVPGTQLSPSP	3.07
FAQPCMRPPFGAAAVPGTQLSPSP	2.68
FAQPYMRPPFGAAAVPGTQLSPSP	2.64
FAQPLMRPPFGAAAVPGTQLSPSP	3.4
FAQPMMRPPFGAKAVPGTQLSPSP	3.13
FAQPMMRPPFGANAVPGTQLSPSP	3.46
FAQPMMRPPFGAEAVPGTQLSPSP	3.24
FAQPMMRPPFGAPAVPGTQLSPSP	3.76
FAQPMMRPPFGATAVPGTQLSPSP	3.36

Variant	protein stability index
FAQPMMRPPFGARAVPGTQLSPSP	3.65
FAQPMMRPPFGAYAVPGTQLSPSP	2.75
FAQPMMRPPFGAQAVPGTQLSPSP	3.32
FAQPMMRPPFGAFAVPGTQLSPSP	3.13
FAQPMMRPPFGAHAVPGTQLSPSP	3.13
FAQPMMRPPFGADAVPGTQLSPSP	3.38
FAQPMMRPPFGAVAVPGTQLSPSP	2.73
FAQPMMRPPFGASAVPGTQLSPSP	3.25
FAQPMMRPPFGAWAVPGTQLSPSP	1.62
FAQPMMRPPFGALAVPGTQLSPSP	2.63
FAQPMMRPPFGACAVPGTQLSPSP	2.39
FAQPMMRPPFGAIAVPGTQLSPSP	2.54
FAQPMMRPPFGAMAVPGTQLSPSP	2.79
FAQPMMRPPFGAGAVPGTQLSPSP	3.44
FAQPMMQPPFGAAAVPGTQLSPSP	2.62
FAQPMMMPPFGAAAVPGTQLSPSP	2.42
FAQPMMWPPFGAAAVPGTQLSPSP	1.7
FAQPMMVPPFGAAAVPGTQLSPSP	2.49
FAQPMMYPPFGAAAVPGTQLSPSP	1.89
FAQPMMEPPFGAAAVPGTQLSPSP	3.22
FAQPMMPPPFGAAAVPGTQLSPSP	2.87
FAQPMMCPPFGAAAVPGTQLSPSP	2.3
FAQPMMLPPFGAAAVPGTQLSPSP	2.38
FAQPMMIPPFGAAAVPGTQLSPSP	2.4

Variant	protein stability index
FAQPMMAPPFGAAAVPGTQLSPSP	3.55
FAQPMMTPPFGAAAVPGTQLSPSP	2.67
FAQPMMDPPFGAAAVPGTQLSPSP	3.13
FAQPMMFPPFGAAAVPGTQLSPSP	1.55
FAQPMMSPPFGAAAVPGTQLSPSP	3.32
FAQPMMKPPFGAAAVPGTQLSPSP	3.34
FAQPMMGPPFGAAAVPGTQLSPSP	2.23
FAQPMMHPPFGAAAVPGTQLSPSP	2.81
FAQPMMNPPFGAAAVPGTQLSPSP	2.92
FAQPMGRPPFGAAAVPGTQLSPSP	3.01
FAQPMKRPPFGAAAVPGTQLSPSP	3.65
FAQPMARPPFGAAAVPGTQLSPSP	2.89
FAQPMPRPPFGAAAVPGTQLSPSP	3.62
FAQPMIRPPFGAAAVPGTQLSPSP	3.77
FAQPMTRPPFGAAAVPGTQLSPSP	3.68
FAQPMSRPPFGAAAVPGTQLSPSP	3.1
FAQPMWRPPFGAAAVPGTQLSPSP	2.61
FAQPMDRPPFGAAAVPGTQLSPSP	3.46
FAQPMFRPPFGAAAVPGTQLSPSP	3.14
FAQPMHRPPFGAAAVPGTQLSPSP	4.01
FAQPMCRPPFGAAAVPGTQLSPSP	2.76
FAQPMLRPPFGAAAVPGTQLSPSP	3.13
FAQPMYRPPFGAAAVPGTQLSPSP	2.88
FAQPMQRPPFGAAAVPGTQLSPSP	3.9

Variant	protein stability index
FAQPMERPPFGAAAVPGTQLSPSP	3.6
FAQPMNRPPFGAAAVPGTQLSPSP	3.19
FAQPMVRPPFGAAAVPGTQLSPSP	3.87
FAQPMRRPPFGAAAVPGTQLSPSP	3.1
FAQPMMRPPFGPAAVPGTQLSPSP	2.7
FAQPMMRPPFGFAAVPGTQLSPSP	2.83
FAQPMMRPPFGSAAVPGTQLSPSP	2.91
FAQPMMRPPFGEAAVPGTQLSPSP	3.39
FAQPMMRPPFGNAAVPGTQLSPSP	3.54
FAQPMMRPPFGIAAVPGTQLSPSP	2.58
FAQPMMRPPFGKAAVPGTQLSPSP	3.16
FAQPMMRPPFGRAAVPGTQLSPSP	3.33
FAQPMMRPPFGMAAVPGTQLSPSP	3.03
FAQPMMRPPFGVAAVPGTQLSPSP	2.55
FAQPMMRPPFGYAAVPGTQLSPSP	2.53
FAQPMMRPPFGDAAVPGTQLSPSP	3.82
FAQPMMRPPFGLAAVPGTQLSPSP	2.42
FAQPMMRPPFGTAAVPGTQLSPSP	2.91
FAQPMMRPPFGQAAVPGTQLSPSP	3.62
FAQPMMRPPFGHAAVPGTQLSPSP	2.96
FAQPMMRPPFGGAAVPGTQLSPSP	3.5
FAQPMMRPPFGWAAVPGTQLSPSP	2.77
FAQPMMRPPFGCAAVPGTQLSPSP	2.46
FAQPMMRPPFGAACVPGTQLSPSP	2.81

Variant	protein stability index
FAQPMMRPPFGAAEVPGTQLSPSP	3.01
FAQPMMRPPFGAAFVPGTQLSPSP	2.65
FAQPMMRPPFGAAHVPGTQLSPSP	2.99
FAQPMMRPPFGAAGVPGTQLSPSP	2.8
FAQPMMRPPFGAADVPGTQLSPSP	2.79
FAQYMMRPPFGAAAVPGTQLSPSP	1.83
FAQSMMRPPFGAAAVPGTQLSPSP	2.26
FAQVMMRPPFGAAAVPGTQLSPSP	2.33
FAQRMMRPPFGAAAVPGTQLSPSP	2.54
FAQQMMRPPFGAAAVPGTQLSPSP	2.02
FAQLMMRPPFGAAAVPGTQLSPSP	1.65
FAQKMMRPPFGAAAVPGTQLSPSP	1.97
FAQNMMRPPFGAAAVPGTQLSPSP	2.36
FAQWMMRPPFGAAAVPGTQLSPSP	1.83
FAQMMMRPPFGAAAVPGTQLSPSP	1.61
FAQTMMRPPFGAAAVPGTQLSPSP	2.53
FAQPMMRPPWGAAAVPGTQLSPSP	2.1
FAQPMMRPPEGAAAVPGTQLSPSP	3.99
FAQPMMRPPMGAAAVPGTQLSPSP	4.12
FAQPMMRPPRGAAAVPGTQLSPSP	3.86
FAQPMMRPPKGAAAVPGTQLSPSP	3.83
FAQPMMRPPAGAAAVPGTQLSPSP	3.98
FAQPMMRPPVGAAAVPGTQLSPSP	4.7
FAQPMMRPPIGAAAVPGTQLSPSP	3.99

Variant	protein stability index
FAQPMMRPPSGAAAVPGTQLSPSP	3.81
FAQPMMRPPLGAAAVPGTQLSPSP	4.12
FAQPMMRPPGGAAAVPGTQLSPSP	4.2
FAQPMMRPPDGAAAVPGTQLSPSP	4.52
FAQPMMRPPNGAAAVPGTQLSPSP	4.14
FAQPMMRPPHGAAAVPGTQLSPSP	3.58
FAQPMMRPPCGAAAVPGTQLSPSP	2.95
FAQPMMRPPPGAAAVPGTQLSPSP	4.31
FAQPMMRPPYGAAAVPGTQLSPSP	2.83
FAQPMMRPPTGAAAVPGTQLSPSP	4.14
FAQPMMRPPQGAAAVPGTQLSPSP	4.33
FAQPMMRRPFGAAAVPGTQLSPSP	3.03
FAQPMMRQPFGAAAVPGTQLSPSP	3.36
FAQPMMRTPFGAAAVPGTQLSPSP	3.02
FAQPMMRMPFGAAAVPGTQLSPSP	3.01
FAQPMMRHPFGAAAVPGTQLSPSP	3.16
FAQPMMRCPFGAAAVPGTQLSPSP	2.39
FAQPMMRLPFGAAAVPGTQLSPSP	2.87
FAQPMMRNPFGAAAVPGTQLSPSP	2.98
FAQPMMRFPFGAAAVPGTQLSPSP	2.97
FAQPMMRKPFGAAAVPGTQLSPSP	2.97
FAQPMMRGPFGAAAVPGTQLSPSP	2.97
FAQPMMRVPFGAAAVPGTQLSPSP	3.11
FAQPMMRIPFGAAAVPGTQLSPSP	2.49

Variant	protein stability index
FAQPMMRWPFGAAAVPGTQLSPSP	2.64
FAQPMMRYPFGAAAVPGTQLSPSP	2.79
FAQPMMRSPFGAAAVPGTQLSPSP	2.96
FAQPMMRDPFGAAAVPGTQLSPSP	3.5
FAQPMMRAPFGAAAVPGTQLSPSP	3.82
FAQPMMREPFGAAAVPGTQLSPSP	3.75
FAQPMMRPHFGAAAVPGTQLSPSP	3.52
FAQPMMRPNFGAAAVPGTQLSPSP	3.14
FAQPMMRPGFGAAAVPGTQLSPSP	3.45
FAQPMMRPYFGAAAVPGTQLSPSP	2.34
FAQPMMRPMFGAAAVPGTQLSPSP	3.1
FAQPMMRPSFGAAAVPGTQLSPSP	3.75
FAQPMMRPEFGAAAVPGTQLSPSP	3.94
FAQPMMRPLFGAAAVPGTQLSPSP	1.91
FAQPMMRPAFGAAAVPGTQLSPSP	3.51
FAQPMMRPRFGAAAVPGTQLSPSP	3.77
FAQPMMRPWFGAAAVPGTQLSPSP	1.91
FAQPMMRPVFGAAAVPGTQLSPSP	3.26
FAQPMMRPIFGAAAVPGTQLSPSP	2.57
FAQPMMRPKFGAAAVPGTQLSPSP	2.71
FAQPMMRPCFGAAAVPGTQLSPSP	3.06
FAQPMMRPQFGAAAVPGTQLSPSP	3.91
FAQPMMRPFFGAAAVPGTQLSPSP	1.63
FAQPMMRPDFGAAAVPGTQLSPSP	4.04

Variant	protein stability index
FAQPMMRPTFGAAAVPGTQLSPSP	3.59
FAQPMMRPPFHAAAVPGTQLSPSP	2.91
FAQPMMRPPFRAAAVPGTQLSPSP	4.01
FAQPMMRPPFTAAAVPGTQLSPSP	3.44
FAQPMMRPPFSAAAVPGTQLSPSP	4.04
FAQPMMRPPFDAAAVPGTQLSPSP	3.7
FAQPMMRPPFAAAAVPGTQLSPSP	3.74
FAQPMMRPPFWAAAVPGTQLSPSP	1.88
FAQPMMRPPFEAAAVPGTQLSPSP	3.43
FAQPMMRPPFQAAAVPGTQLSPSP	4.35
FAQPMMRPPFFAAAVPGTQLSPSP	2.86
FAQPMMRPPFVAAAVPGTQLSPSP	3.35
FAQPMMRPPFMAAAVPGTQLSPSP	3.29
FAQPMMRPPFIAAAVPGTQLSPSP	2.73
FAQPMMRPPFYAAAVPGTQLSPSP	2.91
FAQPMMRPPFKAAAVPGTQLSPSP	3.55
FAQPMMRPPFPAAAVPGTQLSPSP	3.98
FAQPMMRPPFLAAAVPGTQLSPSP	3.04
FAQPMMRPPFNAAAVPGTQLSPSP	3.67
FAQPMMRPPFCAAAVPGTQLSPSP	2.96
